Experimental data from CN111690066A (NANJING RONGJIEKANG BIOTECHNOLOGY CO LTD, dated 2020).

T1: 自产IL-4Rα重组蛋白 (in-house human recombinant IL-4Rα, residues 26-232 of NP_000409.1, expressed in 293F cells) (human, UniProt P24394 26-232)
T1 construct: range 26-232; Cloned into pcDNA3.4 and expressed in 293F cells; The construct itself is defined on NP_000409.1; also called RJK; 人源重组IL-4Rα蛋白
T1 sequence (looked up): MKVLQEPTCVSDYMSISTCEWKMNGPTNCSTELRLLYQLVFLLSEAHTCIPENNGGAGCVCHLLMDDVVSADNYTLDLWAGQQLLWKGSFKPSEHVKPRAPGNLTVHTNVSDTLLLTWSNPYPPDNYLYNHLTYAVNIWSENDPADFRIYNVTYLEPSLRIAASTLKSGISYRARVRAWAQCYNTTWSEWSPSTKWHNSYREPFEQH

B1: 单域抗体 4E9 (VHH)
VHH: QVQLVESGGGSVQAGGSLRLSCAASGDFYCMAWFRQAPGKEREGVATIRSGGRSTYYADSVKGRFTISKDNAKDTLYLQMNSLKPEDTAMYYCAVGVDGNCRNYWGQGTQVTVSS
B2: 单域抗体 1A9 (VHH)
VHH 1: QVPLQQSGPELVKPGASVKISCKASGYAFSSSWMNWVKQRPGKGLEWIGRIYPGDGDTKYNGKFKGKATLTADKSSSTAYMQLSSLTSEDSAVYFCARDDYDEASWGQGTLVTVSA
VHH 2: DIVMTQSQKFMSTSVGDRVSITCKASQNVRSAVAWYQQKPGQSPKSLIYLASNRHTGVPDRFTGSGSGTDFTLTISNVQSEDLADYFCLQHWNYPFTFGSGTKLEIK

Legend:
[1] = target: T1, 自产IL-4Rα重组蛋白 (in-house human …); assay: binding ELISA of purified VHH on IL-4Rα recombinant protein
[2] = target: T1, 自产IL-4Rα重组蛋白 (in-house human …); assay: BLI (Octet RED96), IL-4Rα loaded on the sensor, antibody in solution from 100 nM in 2-fold dilutions

Row | Binder | EC50 [1] | Kd [2] | koff [2] | kon [2]
1 | B1 | 2.13 nM | 0.239 nM | 0.000133 s⁻¹ | 556000 M⁻¹ s⁻¹
2 | B2 | 2.72 nM | – | – | –
